Measurements taken from patent US20250084152A1 (DUKE UNIVERSITY, published 2025).

Assays:
Experiment in all cases: ELISA on LAH peptide
[1] = biological target: H5/VN04 LAH peptide (LAH-Fc fusion protein) (Influenza A virus H5 A/Vietnam/1203/2004, UniProt P87506 416-472)
[2] = biological target: H3/X31 LAH peptide (LAH-Fc fusion protein) (Influenza A virus H3N2 A/Aichi/2/1968, UniProt P03436 421-475)
[3] = biological target: B/MY04 LAH peptide (LAH-Fc fusion protein) (Influenza B virus B/Malaysia/2506/2004, UniProt P03461 425-480)
B/MY04 LAH peptide (LAH-Fc fusion protein), sequence (P03461 425-480 limits assumed): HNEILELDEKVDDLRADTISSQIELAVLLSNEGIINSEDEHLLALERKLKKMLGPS

Measured: binding result

H3/X31 LAH peptide (LAH-Fc fusion protein), sequence (P03436 421-475 limits assumed): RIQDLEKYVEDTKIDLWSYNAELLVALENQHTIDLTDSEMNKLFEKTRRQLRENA
H5/VN04 LAH peptide (LAH-Fc fusion protein), sequence (P87506 416-472 limits assumed): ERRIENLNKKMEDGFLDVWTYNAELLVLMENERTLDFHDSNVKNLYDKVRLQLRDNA

B1: S1V2-72 (antibody, V domains shown)
VH: QVQLVQSGAELKKPGASVKVSCKASGYTFTGNYIHWMRQVPGQGLEWMGWINPRTGDTHHAQKFQGRVDMTRDTSINTAYLELTRLESDDTALYYCARCVFATSQFDPWGQGTLVTVSS
VL: QSALTQPASVSGSPGQSITISCTGTNSDIGSHNLVSWYQQHPGKAPKVMIYDDSKRPSGVSNRFSGSKSGSTASLTISGLQSEDEADYYCCSYAGSSNWVFGGGTKLTLL
no binding: all assays above
